Stoichiometry N data for two molecules are collected here from publication PMC6344521.

Assay [1] concerns the target OVX836, NP of influenza A (A/Wilson-Smith/1933) fused through its C-terminus to the oligomerization domain OVX313 (influenza A virus (strain A/Wilson-Smith/1933)). The assay is described as follows: SEC. For orientation: Size exclusion chromatography separates by hydrodynamic size, large species first.
Assay [2] has the same target. The assay is described as follows: reversed-phase chromatography (RP-UHPLC).
Assay [3] deals with T1, nucleoprotein (NP) of influenza A, prototype human isolate A/Wilson-Smith/1933 (influenza A virus (strain A/Wilson-Smith/1933)), P15682.
T1 chain: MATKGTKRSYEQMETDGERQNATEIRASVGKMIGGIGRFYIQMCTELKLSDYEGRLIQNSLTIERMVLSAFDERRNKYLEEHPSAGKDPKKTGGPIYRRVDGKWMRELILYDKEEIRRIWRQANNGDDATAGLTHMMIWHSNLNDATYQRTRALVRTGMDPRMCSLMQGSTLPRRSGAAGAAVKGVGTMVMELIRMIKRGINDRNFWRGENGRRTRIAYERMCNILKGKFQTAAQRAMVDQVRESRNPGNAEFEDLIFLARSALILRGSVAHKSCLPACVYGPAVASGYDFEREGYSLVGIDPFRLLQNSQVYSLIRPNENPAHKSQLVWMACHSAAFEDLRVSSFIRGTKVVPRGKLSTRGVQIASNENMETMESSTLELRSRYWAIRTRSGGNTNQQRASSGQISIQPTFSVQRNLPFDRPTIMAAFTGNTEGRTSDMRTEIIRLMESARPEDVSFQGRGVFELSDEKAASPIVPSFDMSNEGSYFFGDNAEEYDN
The assay is described as follows: SEC. The conditions noted are these: remark: other sources report otherwise.

Regarding “OVX836, NP of influenza A (A/Wilson-Smith/1933) fused through its C-terminus to the oligomerization domain OVX313”, the stoichiometry N in assay [1] and in assay [2] was 7 in each case.

B1: nucleoprotein (NP) of influenza A, prototype human isolate A/Wilson-Smith/1933, P15682 1-498 (natural protein)
chain: T1 chain
As for B1, the stoichiometry N – broadly, the number of molecules, sites or subunits per partner or assembly – in assay [3] amounted to 3.
